Laboratory results published in US20140322220A1 (Bayer, published 2014).
One block for each binder: values may come before it. Numbered stars: 1 amine (or outer) side, 2 acyl side, 3 side chain; on linkers, the order of the positions; unused ones are H or OH. Square brackets hold non-standard residues; d marks the D form. Ends that are not written are not given here. * marks the point of attachment. Biotin = O=C1N[C@H]2[C@H](CS[C@H]2CCCCC(=O)*)N1; Ttds = O=C(CCC(=O)[*:2])NCCCOCCOCCOCCCN[*:1]

Experiments:
[1] = target: T1, RPSFSLVEDTTLEPEG-Ttds-Lys(Biotin) (human); experiment: peptide ELISA, IgG titration, anti-mouse IgG (Fc specific) POD detection
T1 construct: Synthesized by JPT Peptide Technology
T1 peptide: RPSFSLVEDTTLEPEG[Ttds]K(Biotin)

rat FGFR2 on RUCA cells = target: T2, rat FGFR2 on RUCA cells (rat, UniProt F1LNW0 41-840); experiment: FACS, 5 ug/ml, RUCA cells
T2 construct: whole, on cells
Method: (§1) To determine the binding characteristics of the anti-FGFR2 antibodies on mouse, rat and human cancer cell lines, binding was tested by flow cytometry to a panel of cell lines. Adherent cells were washed twice with PBS (without Ca and Mg) and detached by enzyme-free PBS based cell dissociation buffer (Invitrogen). Cells were suspended at approximately 10⁵ cells/well in FACS buffer (PBS without Ca/Mg, Biochrom containing 3% FCS, Biochrom). Cells were centrifuged (250 g, 5 min, 4° C.) and supernatant discarded. Cell were resuspended in dilutions of the antibodies of interest (5 μg/ml in 80 μl if not indicated otherwise) in FACS buffer, and incubated on ice for 1 h. […] After incubation for 1 h on ice cells were again washed with cold FACS buffer, resuspended in 100 μl FACS buffer and analyzed by flow cytometry using a FACS-Array (BD Biosciences). Results are calculated as Geo Mean of the detection by the antibody of interest subtracted by background fluorescence as measured by detection with the secondary antibody alone.

[2] = target: T3, mutated human FGFR2 on MFE-296 cells (human, UniProt P21802 22-821); experiment: FACS, 5 ug/ml, MFE296 cells
T3 construct: whole, on cells
Method: as §1

[3] = target: T4, mutated human FGFR2 on AN3-CA cells (human, UniProt P21802 22-821); experiment: FACS, 5 ug/ml, AN3CA cells
T4 construct: whole, on cells; also called AN3-CA (DSMZ-ACC 267)
Method: as §1

[4] = target: T1, RPSFSLVEDTTLEPEG-Ttds-Lys(Biotin); experiment: peptide binding ELISA; against TPP-1415
From the text: (§2) Two different types of ELISA were used to determine the binding improvement of mutated variants: a) Peptide Binding ELISA: a synthetic peptide comprising the amino acid sequence of the epitope linked C-terminally to a biotinylated lysine […]-Ttds-Lys(Biotin) (peptide sequence derived from SEQ ID NO:63, synthesized by JPT Peptide Technology GmbH, Berlin, Germany), and b) Recombinant Protein Binding ELISA: recombinant human FGFR2 (DNA sequence of human FGFR2 (NP 000132.3) Met 1-Glu 377, fused with a polyhistidine tag at the C-terminus; #10824-1-1081-1, Sin θ Biological Inc., Beijing, China).
(§3) Briefly, in both ELISA formats MTP plates (384 well Maxisorp, Nunc) were coated with 20 μl, anti-human IgG Fc specific (#12136; sigma) at 2.2 μg/ml for 2.5 h at 37° C. in coating buffer (#121125 Candor Bioscience GmbH). […] Anti-FGFR2 variants were immobilized in concentrations of 0.035 μg/ml (peptide based assay) or 0.2 μg/ml (recombinant human FGFR2 protein based assay) in 10% Smart Block in PBST depending on the format and variants to be analyzed by incubation of 20 μl for one hour at 20-22° C. […] After 3 washing steps 20 μl of 10 μM amplex red substrate (# A12222, Invitrogen) in 50 mM Sodium hydrogen phosphate, pH 7.6, were added and the fluorescence signal was detected using a common fluorescence reader, e.g. Tecan M1000. […]

[5] = target: T5, recombinant human FGFR2 (Met 1-Glu 377) with C-terminal polyhistidine tag (human, UniProt P21802 22-377); experiment: protein binding ELISA; against TPP-1415
T5 construct: The range is that of the expressed DNA and begins at Met 1; also called His-tagged FGFR2; recombinant human FGFR2-IIIc molecule
From the text: as §2
(§4) Briefly, in both ELISA formats MTP plates (384 well Maxisorp, Nunc) were coated with 20 μl, anti-human IgG Fc specific (#12136; sigma) at 2.2 μg/ml for 2.5 h at 37° C. in coating buffer (#121125 Candor Bioscience GmbH). […] Anti-FGFR2 variants were immobilized in concentrations of 0.035 μg/ml (peptide based assay) or 0.2 μg/ml (recombinant human FGFR2 protein based assay) in 10% Smart Block in PBST depending on the format and variants to be analyzed by incubation of 20 μl for one hour at 20-22° C. After one washing step using 50 μl PBST, 20 μl quadruplets of the antigen dilution series in 10% SmartBlock in PBST with a maximum concentration of 100 nM were added and incubated for 1 h at 20-22° C. and the washing step was repeated 3 times. For the detection of the biotinylated epitope peptide 20 μl of streptavidine/POD conjugate (# S5512, Sigma) in a 1:1000 dilution in 10% SmartBlock in PBST were applied for one hour at 20-22° C. For the detection of the recombinant FGFR2 protein 20 μl of anti-His/HRP conjugate (#71840, novagen) in a 1:10000 dilution in 10% SmartBlock in PBST were applied for one hour at 20-22° C. After 3 washing steps 20 μl of 10 μM amplex red substrate (# A12222, Invitrogen) in 50 mM Sodium hydrogen phosphate, pH 7.6, were added and the fluorescence signal was detected using a common fluorescence reader, e.g. Tecan M1000. EC50 values were evaluated by fitting the data (Sigmoida) dose-response, variable slope, bottom set to background; GraphPad Prism software).

[6] = target: T5, recombinant human FGFR2 (Met 1-Glu 377) …; experiment: protein binding ELISA, antibody captured by anti-human IgG Fc, FGFR2-His titrated
From the text: as §2, §4

[7] = target: T1, RPSFSLVEDTTLEPEG-Ttds-Lys(Biotin); experiment: peptide binding ELISA, antibody captured by anti-human IgG Fc, biotinylated peptide titrated
From the text: as §2, §4

[8] = target: T5, recombinant human FGFR2 (Met 1-Glu 377) …; experiment: protein binding ELISA; against TPP-1403
From the text: as §2, §4

[9] = target: T1, RPSFSLVEDTTLEPEG-Ttds-Lys(Biotin); experiment: peptide binding ELISA, antibody captured by anti-human IgG Fc, biotinylated peptide titrated; against TPP-1403
From the text: as §2, §3

T5 sequence (P21802 22-377 limits assumed): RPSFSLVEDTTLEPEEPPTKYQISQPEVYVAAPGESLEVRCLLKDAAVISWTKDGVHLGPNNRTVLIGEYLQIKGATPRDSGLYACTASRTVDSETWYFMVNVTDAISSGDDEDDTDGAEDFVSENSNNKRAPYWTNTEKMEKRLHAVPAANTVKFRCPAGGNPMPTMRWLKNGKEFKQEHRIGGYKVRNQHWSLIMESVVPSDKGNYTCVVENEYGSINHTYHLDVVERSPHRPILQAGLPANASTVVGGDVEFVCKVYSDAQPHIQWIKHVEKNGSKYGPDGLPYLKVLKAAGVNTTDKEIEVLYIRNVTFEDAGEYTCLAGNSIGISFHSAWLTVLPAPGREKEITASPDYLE
T3 sequence (P21802 other isoform, or with tags, fused parts or gaps limits assumed, change not shown): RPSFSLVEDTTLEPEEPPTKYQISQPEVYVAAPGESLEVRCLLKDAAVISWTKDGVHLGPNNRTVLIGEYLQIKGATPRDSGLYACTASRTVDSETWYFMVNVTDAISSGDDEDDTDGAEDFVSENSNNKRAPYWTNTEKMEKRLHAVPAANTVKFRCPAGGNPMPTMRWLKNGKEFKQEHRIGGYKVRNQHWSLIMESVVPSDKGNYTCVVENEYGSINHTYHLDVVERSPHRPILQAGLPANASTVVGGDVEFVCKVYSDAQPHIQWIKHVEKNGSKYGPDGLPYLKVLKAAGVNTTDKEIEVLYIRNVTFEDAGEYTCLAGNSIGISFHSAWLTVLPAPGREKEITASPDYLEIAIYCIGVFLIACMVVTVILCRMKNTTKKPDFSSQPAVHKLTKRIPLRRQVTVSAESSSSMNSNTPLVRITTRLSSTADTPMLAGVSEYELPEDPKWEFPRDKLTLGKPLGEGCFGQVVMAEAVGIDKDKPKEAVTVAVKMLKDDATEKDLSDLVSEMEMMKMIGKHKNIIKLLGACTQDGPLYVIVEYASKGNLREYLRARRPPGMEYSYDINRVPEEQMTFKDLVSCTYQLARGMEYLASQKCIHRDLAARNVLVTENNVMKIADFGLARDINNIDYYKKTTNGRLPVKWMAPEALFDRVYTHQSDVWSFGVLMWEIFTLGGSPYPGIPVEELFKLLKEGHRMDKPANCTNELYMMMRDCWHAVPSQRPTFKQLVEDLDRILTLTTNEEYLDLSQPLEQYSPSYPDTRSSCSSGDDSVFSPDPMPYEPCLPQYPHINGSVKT
T4 sequence (P21802 other isoform, or with tags, fused parts or gaps limits assumed, change not shown): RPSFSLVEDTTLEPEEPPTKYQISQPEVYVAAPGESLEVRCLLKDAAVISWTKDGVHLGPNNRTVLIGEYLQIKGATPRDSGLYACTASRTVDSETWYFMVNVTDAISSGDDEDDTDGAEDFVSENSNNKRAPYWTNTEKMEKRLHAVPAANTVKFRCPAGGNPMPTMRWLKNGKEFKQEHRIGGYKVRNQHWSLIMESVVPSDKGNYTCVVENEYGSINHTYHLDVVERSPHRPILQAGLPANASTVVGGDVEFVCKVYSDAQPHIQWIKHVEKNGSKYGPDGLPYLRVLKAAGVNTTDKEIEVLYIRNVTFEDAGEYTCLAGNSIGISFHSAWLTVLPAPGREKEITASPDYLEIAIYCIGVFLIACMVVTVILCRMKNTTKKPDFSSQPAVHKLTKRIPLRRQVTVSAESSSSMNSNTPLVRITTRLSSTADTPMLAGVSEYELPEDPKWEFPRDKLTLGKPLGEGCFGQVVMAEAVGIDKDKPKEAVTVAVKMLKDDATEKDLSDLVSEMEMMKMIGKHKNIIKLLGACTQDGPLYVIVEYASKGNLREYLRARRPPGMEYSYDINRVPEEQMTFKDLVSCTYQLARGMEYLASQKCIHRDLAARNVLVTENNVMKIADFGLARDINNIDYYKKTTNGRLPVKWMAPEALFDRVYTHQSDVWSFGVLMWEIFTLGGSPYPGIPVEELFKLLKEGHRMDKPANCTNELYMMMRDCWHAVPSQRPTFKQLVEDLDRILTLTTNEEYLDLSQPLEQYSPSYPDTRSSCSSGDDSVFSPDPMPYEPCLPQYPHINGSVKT

B4: TPP-1408 (antibody, human IgG1, lambda, V domains shown)
VH: EVQLLESGGGLVQPGGSLRLSCAASGFTFSHSGMHWVRQAPGKGLEWVAVISYDGSNKYYADSVKGRFTISRDNSKNTLYLQMNSLRAEDTAVYYCAREQPVYDFEYWGQGTLVTVSS
VL: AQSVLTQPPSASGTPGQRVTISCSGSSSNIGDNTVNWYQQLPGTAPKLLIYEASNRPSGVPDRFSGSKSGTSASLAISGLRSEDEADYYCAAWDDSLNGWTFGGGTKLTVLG
notes: Matured variant of M047-D08
fold EC50 reduction [4]: > 4 fold
fold signal [4]: 10 fold
fold EC50 reduction [5]: 27 fold
EC50 [6]: 0.29 nM
EC50 [7]: 2.5 nM

B5: M021-H02-hIgG1 (antibody, V domains shown)
VH: EVQLLESGGGLVQPGGSLRLSCAASGFTFSNYGIHWVRQAPGKGLEWVAVISYDGSNKYYADSVKGRFTISRDNSKNTLYLQMNSLRAEDTAMYYCARDSSSAEDYWGQGTLVTVSS
VL: QSVLTQPPSASGTPGQRVTISCSGSSSNTGSNTVNWYQQLPGTAPKLLIYRNNQRPSGVPDRFSGSKSGTSASLAISGLRSEDEADYYCETWDSNTRGVVFGGGTKLTVL
notes: Human IgG1; also called M021-1-102-hIgG1; M021-1-102
Geo Mean minus Geo Mean of secondary antibody alone (FACS) (rat FGFR2 on RUCA cells): 100 to 1000 geomean
Geo Mean minus Geo Mean of secondary antibody alone (FACS) [2]: 100 to 1000 geomean

B6: M054-A05-hIgG1 (antibody, V domains shown)
VH: EVQLLESGGGLVQPGGSLRLSCAASGFTFSNYGMYWVRQAPGKGLEWVAVISYDGTNKYYVDSVKGRFTISRDNSKNTLYLQMNSLRAEDTAVYYCAKDLPKWGGFDSWGQGTLVTVSS
VL: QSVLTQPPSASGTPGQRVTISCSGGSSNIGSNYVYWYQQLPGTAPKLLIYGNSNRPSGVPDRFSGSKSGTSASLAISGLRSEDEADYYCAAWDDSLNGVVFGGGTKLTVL
notes: Human IgG1
Geo Mean minus Geo Mean of secondary antibody alone (FACS) [3]: 100 to 1000 geomean
Geo Mean minus Geo Mean of secondary antibody alone (FACS) [2]: 1000 to 10000 geomean

B7: TPP-1397 (antibody, human IgG1, lambda, V domains shown)
VH: EVQLLESGGGLVQPGGSLRLSCAASGFTFSSYAMSWVRQAPGKGLEWVSAISKSGGSTFYADSVKGRFTISRDNSKNTLYLQMNSLRAEDTAVYYCARVRYIWGEGDWFDPWGQGTLVTVSS
VL: AQSVLTQPPSASGTPGQRVTISCSGSSSNIGENYVSWYQQLPGTAPKLLIYENYKRSSGVPDRFSGSKSGTSASLAISGLRSEDEADYYCAAWDDSLNSWVFGGGTKLTVLG
notes: Matured variant of M048-D01
fold EC50 reduction [8]: 40 fold
EC50 [6]: 0.2 nM
EC50 [7]: 0.004 nM
fold EC50 reduction [9]: > 2300 fold

Now from value to binder:

EC50 [1]: ≤ 1 nM
B1: M048-D01-mIgG2a (antibody)
heavy: EVQLLESGGGLVQPGGSLRLSCAASGFTFSSYAMSWVRQAPGKGLEWVSAISGSGTSTYYADSVKGRFTISRDNSKNTLYLQMNSLRAEDTAVYYCARVRYNWNHGDWFDPWGQGTLVTVSSAKTTAPSVYPLAPVCGDTTGSSVTLGCLVKGYFPEPVTLTWNSGSLSSGVHTFPAVLQSDLYTLSSSVTVTSSTWPSQSITCNVAHPASSTKVDKKIEPRGPTIKPCPPCKCPAPNLLGGPSVFIFPPKIKDVLMISLSPIVTCVVVDVSEDDPDVQISWFVNNVEVHTAQTQTHREDYNSTLRVVSALPIQHQDWMSGKEFKCKVNNKDLPAPIERTISKPKGSVRAPQVYVLPPPEEEMTKKQVTLTCMVTDFMPEDIYVEWTNNGKTELNYKNTEPVLDSDGSYFMYSKLRVEKKNWVERNSYSCSVVHEGLHNHHTTKSFSRTPGK
VL: QSVLTQPPSASGTPGQRVTISCSGSSSNIGNNYVSWYQQLPGTAPKLLIYENYNRPAGVPDRFSGSKSGTSASLAISGLRSEDEADYYCSSWDDSLNYWVFGGGTKLTVL
notes: Murine IgG2a format of M048-D01

Geo Mean minus Geo Mean of secondary antibody alone (FACS) (rat FGFR2 on RUCA cells): 100 to 1000 geomean
Geo Mean minus Geo Mean of secondary antibody alone (FACS) [2]: 100 to 1000 geomean
B2: M054-D03-hIgG1 (antibody, V domains shown)
VH: EVQLLESGGGLVQPGGSLRLSCAASGFTFSNYGMHWVRQAPGKGLEWVAVISYDGSNKYYADSVKGRFTISRDNSKNTLYLQMNSLRAEDTAVYYCAKETNDVPFDYWGQGTLVTVSS
VL: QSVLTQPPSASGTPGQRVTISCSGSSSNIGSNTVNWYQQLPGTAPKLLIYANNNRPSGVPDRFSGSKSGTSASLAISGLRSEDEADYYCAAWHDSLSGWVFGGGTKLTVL
notes: Human IgG1

Geo Mean minus Geo Mean of secondary antibody alone (FACS) (rat FGFR2 on RUCA cells): 100 to 1000 geomean
Geo Mean minus Geo Mean of secondary antibody alone (FACS) [3]: 100 to 1000 geomean
Geo Mean minus Geo Mean of secondary antibody alone (FACS) [2]: 1000 to 10000 geomean
B3: M017-B02-hIgG1 (antibody, V domains shown)
VH: EVQLLESGGGLVQPGGSLRLSCAASGFTFRTSGMHWVRQAPGKGLEWVAVISYDGSNKYYADSVKGRFTISRDNSKNTLYLQMNSLRAEDTAVYYCARESPGYDFEYWGQGTLVTVSS
VL: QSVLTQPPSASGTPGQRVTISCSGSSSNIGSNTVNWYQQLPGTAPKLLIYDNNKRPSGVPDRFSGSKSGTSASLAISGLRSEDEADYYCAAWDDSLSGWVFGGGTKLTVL
notes: Human IgG1
